Measured values: patent publication US20140287471A1, “VARIANT CBH I POLYPEPTIDES WITH REDUCED PRODUCT INHIBITION” (BP CORPORATION NORTN AMERICA INC., priority 2011, published 2014)
Numbering of substitutions follows the chain as printed. Names may count otherwise.

B1: 268— Tyr (protein, UniProt P62694 18-513, looked up, variant R268Y)
Exoglucanase 1: QSACTLQSETHPPLTWQKCSSGGTCTQQTGSVVIDANWRWTHATNSSTNCYDGNTWSSTLCPDNETCAKNCCLDGAAYASTYGVTTSGNSLSIGFVTQSAQKNVGARLYLMASDTTYQEFTLLGNEFSFDVDVSQLPCGLNGALYFVSMDADGGVSKYPTNTAGAKYGTGYCDSQCPRDLKFINGQANVEGWEPSSNNANTGIGGHGSCCSEMDIWEANSISEALTPHPCTTVGQEICEGDGCGGTYSDNYYGGTCDPDGCDWNPYRLGNTSFYGPGSSFTLDTTKKLTVVTQFETSGAINRYYVQNGVTFQQPNAELGSYSGNELNDDYCTAEEAEFGGSSFSDKGGLTQFKKATSGGMVLVMSLWDDYYANMLWLDSTYPTNETSSTPGAVRGSCSTSSGVPAQVESQSPNAKVTFSNIKFGPIGSTGNPSGGNPPGGNRGTTTTRRPATTTGSSPGPTQSHYGQCGGIGYSGPTVCASGTTCQVLNPYYSQCL
B2: 268_+411A Gln (protein, UniProt P62694 18-513, looked up, variant R268Q R411A)
Exoglucanase 1: B1 Exoglucanase 1 with Y251Q, R394A
B3: 268— Trp (protein, UniProt P62694 18-513, looked up, variant R268W)
Exoglucanase 1: B1 Exoglucanase 1 with Y251W
B4: 268— Phe (protein, UniProt P62694 18-513, looked up, variant R268F)
Exoglucanase 1: B1 Exoglucanase 1 with Y251F
B5: 268— Glu (protein, UniProt P62694 18-513, looked up, variant R268E)
Exoglucanase 1: B1 Exoglucanase 1 with Y251E
B6: 268— Asp (protein, UniProt P62694 18-513, looked up, variant R268D)
Exoglucanase 1: B1 Exoglucanase 1 with Y251D
B7: 268— His (protein, UniProt P62694 18-513, looked up, variant R268H)
Exoglucanase 1: B1 Exoglucanase 1 with Y251H
B8: R411N (protein, UniProt P62694 18-513, looked up, variant R411N)
Exoglucanase 1: B1 Exoglucanase 1 with Y251R, R394N
B9: R411T (protein, UniProt P62694 18-513, looked up, variant R411T)
Exoglucanase 1: B1 Exoglucanase 1 with Y251R, R394T
B10: R411Q (protein, UniProt P62694 18-513, looked up, variant R411Q)
Exoglucanase 1: B1 Exoglucanase 1 with Y251R, R394Q
B11: R411E (protein, UniProt P62694 18-513, looked up, variant R411E)
Exoglucanase 1: B1 Exoglucanase 1 with Y251R, R394E
B12: R411L (protein, UniProt P62694 18-513, looked up, variant R411L)
Exoglucanase 1: B1 Exoglucanase 1 with Y251R, R394L
B13: R268F (protein, UniProt P62694 18-513, looked up, variant R268F)
Exoglucanase 1: B1 Exoglucanase 1 with Y251F
B14: R411D (protein, UniProt P62694 18-513, looked up, variant R411D)
Exoglucanase 1: B1 Exoglucanase 1 with Y251R, R394D
B15: 268N: CBH I variant with site 268 mutated to asparagine (protein, UniProt P62694 18-513, looked up, variant R268N)
Exoglucanase 1: B1 Exoglucanase 1 with Y251N
B16: R411P (protein, UniProt P62694 18-513, looked up, variant R411P)
Exoglucanase 1: B1 Exoglucanase 1 with Y251R, R394P
B17: R268D (protein, UniProt P62694 18-513, looked up, variant R268D)
Exoglucanase 1: B1 Exoglucanase 1 with Y251D
B18: R268Y (protein, UniProt P62694 18-513, looked up, variant R268Y)
Exoglucanase 1: B1 Exoglucanase 1
B19: R411C (protein, UniProt P62694 18-513, looked up, variant R411C)
Exoglucanase 1: B1 Exoglucanase 1 with Y251R, R394C
B20: R268R (protein, UniProt P62694 18-513, looked up)
Exoglucanase 1: B1 Exoglucanase 1 with Y251R
B21: R268C (protein, UniProt P62694 18-513, looked up, variant R268C)
Exoglucanase 1: B1 Exoglucanase 1 with Y251C
B22: R411F (protein, UniProt P62694 18-513, looked up, variant R411F)
Exoglucanase 1: B1 Exoglucanase 1 with Y251R, R394F
B23: 268S: CBH I variant with site 268 mutated to serine (protein, UniProt P62694 18-513, looked up, variant R268S)
Exoglucanase 1: B1 Exoglucanase 1 with Y251S
B24: R268I (protein, UniProt P62694 18-513, looked up, variant R268I)
Exoglucanase 1: B1 Exoglucanase 1 with Y251I
B25: R268H (protein, UniProt P62694 18-513, looked up, variant R268H)
Exoglucanase 1: B1 Exoglucanase 1 with Y251H
B26: 411 S: CBH I variant with site 411 mutated to serine (protein, UniProt P62694 18-513, looked up, variant R411S)
Exoglucanase 1: B1 Exoglucanase 1 with Y251R, R394S
B27: R268T (protein, UniProt P62694 18-513, looked up, variant R268T)
Exoglucanase 1: B1 Exoglucanase 1 with Y251T
B28: R411V (protein, UniProt P62694 18-513, looked up, variant R411V)
Exoglucanase 1: B1 Exoglucanase 1 with Y251R, R394V
B29: 268A/411S: CBH I variant with site 268 mutated to alanine and site 411 to serine (protein, UniProt P62694 18-513, looked up, variant R268A R411S)
Exoglucanase 1: B1 Exoglucanase 1 with Y251A, R394S

Assay: 4-MUL assay, specific activity (Example 2)
Format: biochemical
Conditions: primary screening; 10 μL enzyme; n=1
Method: (§1) CBH I activity on was measured using the 4-MUL assay using gluconolactone to inhibit any BG activity. The fluorogenic 4-MUL substrate (SIGMA) was prepared at 100 mM concentration in DMSO. Assays were run in black 96-well-flat-bottomed plates (Costar) and 4-MU fluorescence was read on a BioTek H4 plate reader (ex/em 365/450 nm). Assay plates were filled with buffer (final concentrations of 100 mM MES, pH 6, 25 mM gluconolactone, with or without cellobiose; cellobiose concentrations are listed with appropriate data sets), to which enzyme mixture was added (10-30 μl, 5 μg/mL final) and then assays were initiated by addition of 4-MUL (0.5 mM final concentration in 100 μl total volume). Enzyme mixtures were either CBH I variants from harvested supernatants or standards. Standards included: a negative control, consisting of harvested supernatant from the CBH I knock-out strain; a positive control, consisting of wild-type CBH I from harvested supernatants; and, a commercial CBH I standard (E-CBHI from Megazymes). Activity standards were run by serial dilution of commercial CBH I from 40 to 0.02 μg/mL and 4-MU (SIGMA, prepared at 20 mM in DMSO) (in dilution increments of 2-fold; all dilutions were made using harvested supernatant from the knock-out control). Kinetic rates were monitored over the first 15 mins following 4-MUL addition; initial rates were calculated based on data in the linear range. After 1 hr, a final endpoint read was taken, both before and after reaction quenching (100 μL of 200 mM Sodium Carbonate, pH 10.0). Activity was calculated for kinetic and endpoint reads; background resulting from the CBH I knock-out supernatant remained negligible. 4MU standard curves and HPLC quantification values were used to calculate specific activity.
The specific activity (SA) of the variant library was evaluated in a secondary 4-MUL assay. […] On average, a mutation at position 268 increases the specific activity by 2.5 fold over that of wild type. A mutation at 268 in combination with 411 is around 1.5-1.6 fold higher than wild-type, on average.

Row | Molecule | SA (μmol 4 MU/min/mg) (MUL Data)
1 | B1 | 0.65
2 | B2 | −0.45
3 | B3 | 1.31
4 | B4 | 0.70
5 | B5 | 0.88
6 | B6 | 0.67
7 | B7 | 1.21

Assay: 4-MUL cellobiose tolerance/inhibition assay, dose-response IC50 (Example 2)
Format: biochemical
Conditions: 1 mM cellobiose; primary screening; n=1
Method: as §1
Tolerance/inhibition values represent activity ratios and/or percent activity remaining/percent activity decreased in the presence versus the absence of cellobiose. Tolerant variants show less inhibition in the presence of cellobiose as compared to wild type, where an activity ratio of 1 (with vs. without a given concentration of cellobiose) is equivalent to 0% inhibition by cellobiose, or 100% tolerance. The effect of cellobiose on CBH I variant performance was monitored by dose-response in the 4MUL assay. Dose-response curves were generated by assaying variant activity in the presence of 6-8 different cellobiose concentrations ranging up to 100 mM cellobiose. CBH I samples were diluted to 5 μg/mL final concentration or were used directly in the case of protein quantification levels below 5 μg/mL. Half maximal inhibitory concentration (IC50) values were determined by plotting 4MUL activity versus cellobiose concentration and fitting with a four parameter dose-response fitting algorithm, with zero activity (or 100% inhibition) constrained to background activity (as established by CBH I knockout values) and with automatic outlier elimination (on GraphPad Prism 5).
Harvested supernatants from active variant isolates were evaluated for cellobiose tolerance at 1 mM cellobiose in the 4-MUL activity assay. Table 8 lists the tolerance of variants at 1 mM. […] Additional cellobiose concentrations at 0.25, 5, 10, 50, and 100 mM were tested leading to full dose-response curves for which half maximal inhibitory concentration (IC50) values were generated (Table 8). The IC50 values support that the variant library has decreased product inhibition, or increased tolerance to cellobiose, when compared to the wild-type enzyme (WT IC50=0.03 mM; see first entry, Table 8).
In one example, the cellobiose tolerance of the library was explored in more detail by generating dose-response curves and determining half maximal inhibitory concentration (IC50) values, the point at which the enzyme is 50% inhibited.

Row | Molecule | Tolerance at 1 mM CB (MUL Data) [%]
8 | B1 | 35
9 | B3 | 42
10 | B4 | 21
11 | B5 | 52
12 | B6 | 44
13 | B7 | 20

Same assay, conditions: Secondary screening; 30 μl harvested supernatant (CBH I levels lower than 5 μg/mL); cellobiose range 0.00085-100 mM; read-out: IC50

Row | Molecule | IC50 [µM]
14 | B8 | 7900
15 | B9 | 2020
16 | B10 | 2510
17 | B11 | 3380
18 | B12 | 6390
19 | B13 | 515
20 | B14 | 1640

Same assay, conditions: Secondary screening; CBH I levels normalized to 5 μg/mL; cellobiose range 0.00085-100 mM; read-out: IC50

Row | Molecule | IC50 [µM]
21 | B15 | 482
22 | B16 | 1270
23 | B17 | 467
24 | B9 | 2000
25 | B18 | 434
26 | B19 | 1310
27 | B20 | 52
28 | B21 | 351
29 | B22 | 7580
30 | B23 | 452
31 | B24 | 484
32 | B14 | 1580
33 | B25 | 283
34 | B26 | 895
35 | B27 | 349
36 | B28 | 2900

Same assay, conditions: averaged IC50 values from Tables 8-11; read-out: measured IC50 of cellobiose (merged values)

Row | Molecule | IC50 [µM]
37 | B15 | 490

Same assay, conditions: primary screening; 10 μL enzyme; cellobiose range 0.0001-100 mM; n=1; read-out: IC50 (MUL Data)

Row | Molecule | IC50 [µM]
38 | B1 | 450
39 | B3 | 610
40 | B4 | 400
41 | B5 | 870
42 | B6 | 900
43 | B7 | 250

Same assay, conditions: secondary screening; CBH I levels normalized to 5 μg/mL; cellobiose range 0.0001-100 mM; read-out: Average IC50

Row | Molecule | IC50 [µM]
44 | B15 | 405
45 | B16 | 1050
46 | B8 | 6720
47 | B17 | 431
48 | B18 | 344
49 | B19 | 886
50 | B20 | 46
51 | B21 | 335
52 | B22 | 5390
53 | B23 | 406
54 | B24 | 320
55 | B25 | 209
56 | B26 | 762
57 | B27 | 360
58 | B28 | 3190

Same assay, conditions: serine variants; unit not given in the legend; read-out: IC50 values (representative IC50 curves, FIG. 9)

Row | Molecule | IC50 [µM]
59 | B29 | 6800
60 | B23 | 450
61 | B26 | 890
